Source: publication PMC7308715

Molecular target: N-ribosyltransferase from Archaeoglobus veneficus SNP6 (AvNRT) (Archaeoglobus veneficus SNP6)
Assay: AUC; sedimentation velocity; 20 mM Tris-HCl, pH 8, 20 °C, 50,000 x g; profiles recorded at 292 nm; c(s) analysis with SEDFIT

Question: With “N-ribosyltransferase from Archaeoglobus veneficus SNP6 (AvNRT) (enzyme)” as the substance, how does the stoichiometry N read?
Answer: The stoichiometry N was 4.
